Legend:
[1] = molecular target: T1, CREB 285bZIP wild type (pseudo-WT, Cys to Ser) (human, UniProt P16220-1 285-339, C300S;C310S;C337S); assay: stopped-flow fluorescence (koff/kon); koff 2.44 s-1 averaged over competitor concentrations; 10 mM Mg2+; 10 mM MES pH 6.5, 150 mM NaCl, 10 mM MgCl2, 0.05% Tween-20, 25 C; NMR: 10 mM Tris-d11, 150 mM NaCl, 10 mM MgCl2, 1 mM NaN3, 5% D2O (NOE at 25 C); settings: protein: recombinant; tags: extra N-terminal Gly after TEV cleavage; His6-GB1 removed; chain copies: 2; label: 5' Alexa Fluor 488; hairpin (self-annealing, 11 bp stem, CCCC loop)
T1 sequence: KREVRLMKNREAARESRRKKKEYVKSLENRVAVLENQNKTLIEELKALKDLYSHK

[2] = molecular target: T1, CREB 285bZIP wild type (pseudo-WT, Cys …); assay: stopped-flow fluorescence (koff/kon); koff 2.531 s-1; kon 6.7 nM-1 s-1; 10 mM Mg2+; 10 mM MES pH 6.5, 150 mM NaCl, 10 mM MgCl2, 0.05% Tween-20, 25 C; NMR: 10 mM Tris-d11, 150 mM NaCl, 10 mM MgCl2, 1 mM NaN3, 5% D2O (NOE at 25 C); settings: protein: recombinant; tags: extra N-terminal Gly after TEV cleavage; His6-GB1 removed; chain copies: 2; label: 5' Alexa Fluor 488; hairpin (self-annealing, 11 bp stem, CCCC loop)

B1: AlexaFluor488-CREh (structured_DNA)
DNA: CCTGACGTCAGCCCCCTGACGTCAGG
For B1, the Kd [1] was 360 ± 40 pM and the Kd [2] was 380 ± 30 pM.

— article PMC11514473, “The transition state for coupled folding and binding of a disordered DNA binding domain resembles the unbound state” (Nucleic Acids Research, 2024)
